Results on two substances are retold here after patent US20260226187A1.

A word on the Kd: it is the constant that tells how readily two partners part at equilibrium. A lower Kd goes with tighter binding.

Experiment [1] addresses Human EpCAM expressed on cells (CHO-hEpCAM, HCT116) (human) (UniProt P16422). In words: flow cytometry of HCT116 cells stained with PE anti-hEpCAM clone 9C4, quantified with the QuantiBrite PE bead standard curve.
Experiment [2] shares this target. In words: flow cytometry of CHO-hEpCAM cells stained with PE anti-hEpCAM clone 9C4, quantified with the QuantiBrite PE bead standard curve. Background: A flow cytometer gives signals particle by particle.
In experiment [3] the target is Cynomolgus EpCAM expressed on CHO cells (cynomolgus monkey). As to the kind of experiment: flow cytometry of CHO-cynoEpCAM cells stained with PE anti-hEpCAM clone 9C4, quantified with the QuantiBrite PE bead standard curve.
Sequence of Cynomolgus EpCAM expressed on CHO cells (cynomolgus monkey) (Q1WER1 24-314): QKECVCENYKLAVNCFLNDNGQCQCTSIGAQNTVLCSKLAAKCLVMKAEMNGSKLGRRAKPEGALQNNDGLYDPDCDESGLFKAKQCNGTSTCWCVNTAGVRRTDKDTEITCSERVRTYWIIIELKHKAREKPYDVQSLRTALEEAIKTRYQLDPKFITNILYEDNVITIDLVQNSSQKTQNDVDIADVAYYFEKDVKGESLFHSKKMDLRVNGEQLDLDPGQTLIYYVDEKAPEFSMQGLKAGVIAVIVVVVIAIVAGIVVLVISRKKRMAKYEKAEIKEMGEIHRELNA
Experiment [4] has as its target FcγRI (CD64) (human) (UniProt P12314). As to the kind of experiment: SPR, His-captured FcγRI, antibody analyte, 1:1 model, PBST pH 7.4. (Surface plasmon resonance follows binding to a sensor surface in real time, without labels.)
The target in experiment [5] is FcRn (human) (UniProt P55899). In words: SPR, antibody immobilised, FcRn analyte, steady state model, pH 6.0.
Sequence of FcRn (human) (P55899 24-297 limits assumed, chain 1 of 2): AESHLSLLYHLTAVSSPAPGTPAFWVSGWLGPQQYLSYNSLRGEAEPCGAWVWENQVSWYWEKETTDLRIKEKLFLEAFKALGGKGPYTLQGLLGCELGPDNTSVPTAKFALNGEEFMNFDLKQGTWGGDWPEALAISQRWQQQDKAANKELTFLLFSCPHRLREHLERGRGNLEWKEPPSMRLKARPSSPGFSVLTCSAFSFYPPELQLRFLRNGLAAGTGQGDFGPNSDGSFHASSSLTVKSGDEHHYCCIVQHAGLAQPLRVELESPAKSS
Sequence of FcRn (human) (chain, as listed by the source limits assumed, chain 2 of 2): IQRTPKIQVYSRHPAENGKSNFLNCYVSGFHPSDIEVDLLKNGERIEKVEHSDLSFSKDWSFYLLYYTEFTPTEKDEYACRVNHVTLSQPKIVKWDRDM
Experiment [6] concerns the target FcγRIIb/c (CD32b/c) (human) (UniProt P31994). As to the kind of experiment: SPR, His-captured FcγRIIb/c, antibody analyte, steady state model, HBS-EP+.
The target of experiment [7] is FcγRIIIa F158 (CD16a) (human) (UniProt P08637). In words: SPR, His-captured FcγRIIIa F158, antibody analyte, steady state model, HBS-EP+ (FIG. 31).
Sequence of FcγRIIIa F158 (CD16a) (human) (P08637 17-208): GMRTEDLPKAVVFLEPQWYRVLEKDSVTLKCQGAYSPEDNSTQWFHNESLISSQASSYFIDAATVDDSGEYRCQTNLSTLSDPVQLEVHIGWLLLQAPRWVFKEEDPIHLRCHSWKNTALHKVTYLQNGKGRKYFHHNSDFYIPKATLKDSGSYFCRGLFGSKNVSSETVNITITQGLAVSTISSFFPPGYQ
The target of experiment [8] is FcγRIIIb (CD16b) (human) (UniProt O75015). As to the kind of experiment: SPR, His-captured FcγRIIIb (CD16b), antibody analyte, steady state model, HBS-EP+ (legend of FIG. 32; receptor printed as FcγRIIIa).
Sequence of FcγRIIIb (CD16b) (human) (O75015 17-200 limits assumed): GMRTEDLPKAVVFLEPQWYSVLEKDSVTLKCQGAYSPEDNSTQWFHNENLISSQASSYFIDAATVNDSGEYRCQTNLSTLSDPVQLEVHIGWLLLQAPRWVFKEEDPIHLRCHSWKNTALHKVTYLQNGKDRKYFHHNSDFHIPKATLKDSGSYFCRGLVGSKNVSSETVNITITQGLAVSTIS

Sequence of Human EpCAM expressed on cells (CHO-hEpCAM, HCT116) (human) (P16422 24-314): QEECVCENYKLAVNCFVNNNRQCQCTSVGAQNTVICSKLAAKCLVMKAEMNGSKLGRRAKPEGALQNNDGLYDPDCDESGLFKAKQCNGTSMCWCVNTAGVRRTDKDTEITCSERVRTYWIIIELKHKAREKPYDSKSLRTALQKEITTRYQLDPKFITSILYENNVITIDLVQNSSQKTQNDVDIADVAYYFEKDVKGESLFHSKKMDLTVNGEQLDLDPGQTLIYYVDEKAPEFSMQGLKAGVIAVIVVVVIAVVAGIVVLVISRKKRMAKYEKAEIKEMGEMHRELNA
Sequence of FcγRIIb/c (CD32b/c) (human) (P31994 43-217): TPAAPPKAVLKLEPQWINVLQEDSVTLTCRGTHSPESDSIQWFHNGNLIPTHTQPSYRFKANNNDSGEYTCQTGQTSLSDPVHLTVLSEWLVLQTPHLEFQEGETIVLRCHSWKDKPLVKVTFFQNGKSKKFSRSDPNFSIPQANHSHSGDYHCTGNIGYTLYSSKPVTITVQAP
Sequence of FcγRI (CD64) (human) (P12314 16-292): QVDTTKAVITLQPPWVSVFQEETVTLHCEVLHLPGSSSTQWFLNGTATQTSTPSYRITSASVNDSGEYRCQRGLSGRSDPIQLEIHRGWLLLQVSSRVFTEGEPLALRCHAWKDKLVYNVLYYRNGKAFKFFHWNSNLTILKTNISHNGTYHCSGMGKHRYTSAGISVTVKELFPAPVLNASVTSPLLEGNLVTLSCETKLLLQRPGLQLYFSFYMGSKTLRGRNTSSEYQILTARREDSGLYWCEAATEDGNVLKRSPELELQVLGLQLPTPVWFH

Turning to “Mouse anti-hEpCAM conjugated to PE, clone 9C4 (antibody)”, the Antibody per cell (Antibody per cell) in experiment [1] was 412000; in experiment [2] it was 194000; in experiment [3], 231000.

Turning to IgG1-ctrl mAb (antibody), the Kd turned out to be 1.18 nM in experiment [4]; 366 nM in experiment [5]; 4.2 µM in experiment [6]; 860 nM in experiment [7]; 6.5 µM in experiment [8].
